Measured values from patent US20250084179A1 (Xencor, published 2025).

T1: TROP2 (UniProt P09758 27-274, limits assumed)
T1 construct: also called tumor-associated calcium signal transducer 2; TACSTD2
T1 sequence (looked up): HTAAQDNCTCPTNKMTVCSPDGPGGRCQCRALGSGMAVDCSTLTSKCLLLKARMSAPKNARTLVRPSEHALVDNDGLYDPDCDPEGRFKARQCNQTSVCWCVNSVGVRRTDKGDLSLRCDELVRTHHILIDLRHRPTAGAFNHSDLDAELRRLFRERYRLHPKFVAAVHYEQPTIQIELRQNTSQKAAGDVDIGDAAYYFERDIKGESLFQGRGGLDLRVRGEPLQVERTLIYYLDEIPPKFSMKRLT

T2: Cyno TROP2 (Macaca fascicularis, UniProt A0A2K5UE71)
T2 construct: Construct used in the measurement is not described; also called cynomolgus TROP2
T2 sequence (antigen): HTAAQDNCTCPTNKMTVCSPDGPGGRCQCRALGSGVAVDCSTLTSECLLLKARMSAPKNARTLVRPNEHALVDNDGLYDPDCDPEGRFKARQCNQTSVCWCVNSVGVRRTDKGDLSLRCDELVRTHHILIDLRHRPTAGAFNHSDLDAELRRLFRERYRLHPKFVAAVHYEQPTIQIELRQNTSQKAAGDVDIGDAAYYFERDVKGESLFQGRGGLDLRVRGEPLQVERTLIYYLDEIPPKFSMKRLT


Legend:
[1] = target: T1, TROP2; assay: not stated; bivalent format
[2] = target: T2, Cyno TROP2; assay: not stated; bivalent format

Binder | Kd [1] [nM] | koff [1] [s⁻¹] | kon [1] [M⁻¹ s⁻¹] | Kd [2] [nM] | koff [2] [s⁻¹] | kon [2] [M⁻¹ s⁻¹]
1F11-1A3.315[Trop2]_H1.17_L1 (antibody, V domains shown) VH: QVQLVQSGAEVKKPGASVKVSCKASGYTLTRYYMHWVRQAPGQGLEWMGIIEPGGGSTGYAQKFQGRVTMTRDTSTSTVYMELSSLRSEDTAVYYCARDDVVKADVFDYWGQGTLVTVSS VL: not shown | 0.62 | 0.00017 | 270000 | 0.81 | 0.00028 | 350000
1F11-1A3.315[Trop2]_H1.21_L1 (antibody, V domains shown) VH: QVQLVQSGAEVKKPGASVKVSCKASGYTLTRYYMHWVRQAPGQGLEWMGIIEPGGGSTSYAQKFQGRVTMTRDTSTSTVYMELSSLRSEDTAVYYCARDDVVKADVFDYWGQGTLVTVSS VL: not shown | 1.5 | 0.00032 | 210000 | 0.81 | 0.00031 | 390000
1F11-1A3.315[Trop2]_H1.3_L1 (antibody, V domains shown) VH: QVQLVQSGAEVKKPGASVKVSCKASGYTFTRYYMHWVRQAPGQGLEWMGIINPGGGSTTYAQKFQGRVTMTRDTSTSTVYMELSSLRSEDTAVYYCARDDVVAADVFDYWGQGTLVTVSS VL: not shown | 6 | 0.0012 | 200000 | 8.6 | 0.002 | 230000
1F11-1A3.315[Trop2]_H1.16_L1 (antibody, V domains shown) VH: QVQLVQSGAEVKKPGASVKVSCKASGYTLTRYYMHWVRQAPGQGLEWMGIIEPGGGSTGYAQKFQGRVTMTRDTSTSTVYMELSSLRSEDTAVYYCARDDVTAADVFDYWGQGTLVTVSS VL: not shown | 1.1 | 0.00029 | 270000 | 1.5 | 0.00047 | 310000
1F11-1A3.315[Trop2]_H1.14_L1 (antibody, V domains shown) VH: QVQLVQSGAEVKKPGASVKVSCKASGYTFTRYYMHWVRQAPGQGLEWMGIINPGGGSTTYAQKFQGRVTMTRDTSTSTVYMELSSLRSEDTAVYYCARDDVVKADVFDYWGQGTLVTVSS VL: not shown | 2.6 | 0.00077 | 290000 | 3.7 | 0.0013 | 360000
1F11-1A3.315[Trop2]_H1.8_L1 (antibody, V domains shown) VH: QVQLVQSGAEVKKPGASVKVSCKASGYTLTRYYMHWVRQAPGQGLEWMGIINPGGGSTGYAQKFQGRVTMTRDTSTSTVYMELSSLRSEDTAVYYCARDDVTAADVFDYWGQGTLVTVSS VL: not shown | 2.7 | 0.0006 | 230000 | 3.1 | 0.00077 | 250000
1F11-1A3.315[Trop2]_H1.4_L1 (antibody, V domains shown) VH: QVQLVQSGAEVKKPGASVKVSCKASGYTFTRYYMHWVRQAPGQGLEWMGIINPGGGSTGYAQKFQGRVTMTRDTSTSTVYMELSSLRSEDTAVYYCARDDVTAADVFDYWGQGTLVTVSS VL: not shown | 6.7 | 0.0011 | 180000 | 9.4 | 0.0021 | 220000
1F11-1A3.315[Trop2]_H1.24_L1 (antibody, V domains shown) VH: QVQLVQSGAEVKKPGASVKVSCKASGYTFTRYYMHWVRQAPGQGLEWMGIINPGGGSTDYAQKFQGRVTMTRDTSTSTVYMELSSLRSEDTAVYYCARDDVVAADVFDYWGQGTLVTVSS VL: not shown | 5.7 | 0.0013 | 240000 | 11 | 0.0026 | 250000
1F11-1A3.315[Trop2]_H1.20_L1 (antibody, V domains shown) VH: QVQLVQSGAEVKKPGASVKVSCKASGYTLTRYYMHWVRQAPGQGLEWMGIIEPGGGSTSYAQKFQGRVTMTRDTSTSTVYMELSSLRSEDTAVYYCARDDVTAADVFDYWGQGTLVTVSS VL: not shown | 1.1 | 0.00035 | 320000 | 1.7 | 0.00059 | 340000
1F11-1A3.315[Trop2]_H1.12_L1 (antibody, V domains shown) VH: QVQLVQSGAEVKKPGASVKVSCKASGYTFTRYYMHWVRQAPGQGLEWMGIIEPGGGSTGYAQKFQGRVTMTRDTSTSTVYMELSSLRSEDTAVYYCARDDVVKADVFDYWGQGTLVTVSS VL: not shown | 1.3 | 0.00033 | 270000 | 1.1 | 0.00038 | 360000
1F11-1A3.315[Trop2]_H1.5_L1 (antibody, V domains shown) VH: QVQLVQSGAEVKKPGASVKVSCKASGYTFTRYYMHWVRQAPGQGLEWMGIINPGGGSTGYAQKFQGRVTMTRDTSTSTVYMELSSLRSEDTAVYYCARDDVVKADVFDYWGQGTLVTVSS VL: not shown | 3.4 | 0.00081 | 240000 | 4.5 | 0.0014 | 320000

Further binders by falling Kd [1], results first:

Kd [1] [nM] | koff [1] [s⁻¹] | kon [1] [M⁻¹ s⁻¹] | Kd [2] [nM] | koff [2] [s⁻¹] | kon [2] [M⁻¹ s⁻¹] | Binder
7.2 | 0.0012 | 170000 | 11 | 0.0026 | 230000 | 1F11-1A3.315[Trop2]_H1.23_L1 (antibody, V domains shown) VH: QVQLVQSGAEVKKPGASVKVSCKASGYTFTRYYVHWVRQAPGQGLEWMGIINPGGGSTGYAQKFQGRVTMTRDTSTSTVYMELSSLRSEDTAVYYCARDDVVAADVFDYWGQGTLVTVSS VL: not shown
4.1 | 0.00091 | 230000 | 5.1 | 0.0016 | 310000 | 1F11-1A3.315[Trop2]_H1.15_L1 (antibody, V domains shown) VH: QVQLVQSGAEVKKPGASVKVSCKASGYTFTRYYMHWVRQAPGQGLEWMGIINPGGGSTGYAQKFQGRVTMTRDTSTSTVYMELSSLRSEDTAVYYCARDDVTKADVFDYWGQGTLVTVSS VL: not shown
2 | 0.00048 | 240000 | 2.7 | 0.00073 | 270000 | 1F11-1A3.315[Trop2]_H1.1_L1 (antibody, V domains shown) VH: QVQLVQSGAEVKKPGASVKVSCKASGYTLTRYYMHWVRQAPGQGLEWMGIINPGGGSTGYAQKFQGRVTMTRDTSTSTVYMELSSLRSEDTAVYYCARDDVVAADVFDYWGQGTLVTVSS VL: not shown
2 | 0.00047 | 250000 | 2.5 | 0.00067 | 270000 | 1F11-1A3.315[Trop2]_H1.2_L1 (antibody, V domains shown) VH: QVQLVQSGAEVKKPGASVKVSCKASGYTFTRYYMHWVRQAPGQGLEWMGIIEPGGGSTGYAQKFQGRVTMTRDTSTSTVYMELSSLRSEDTAVYYCARDDVVAADVFDYWGQGTLVTVSS VL: not shown
1.9 | 0.00053 | 280000 | 2.8 | 0.00077 | 280000 | 1F11-1A3.315[Trop2]_H1.7_L1 (antibody, V domains shown) VH: QVQLVQSGAEVKKPGASVKVSCKASGYTLTRYYMHWVRQAPGQGLEWMGIINPGGGSTTYAQKFQGRVTMTRDTSTSTVYMELSSLRSEDTAVYYCARDDVVAADVFDYWGQGTLVTVSS VL: not shown
1.7 | 0.0004 | 240000 | 1.4 | 0.00046 | 320000 | 1F11-1A3.315[Trop2]_H1.9_L1 (antibody, V domains shown) VH: QVQLVQSGAEVKKPGASVKVSCKASGYTLTRYYMHWVRQAPGQGLEWMGIINPGGGSTGYAQKFQGRVTMTRDTSTSTVYMELSSLRSEDTAVYYCARDDVVKADVFDYWGQGTLVTVSS VL: not shown
1.7 | 0.00051 | 330000 | 2.8 | 0.00084 | 300000 | 1F11-1A3.315[Trop2]_H1.13_L1 (antibody, V domains shown) VH: QVQLVQSGAEVKKPGASVKVSCKASGYTFTRYYMHWVRQAPGQGLEWMGIINPGGGSTTYAQKFQGRVTMTRDTSTSTVYMELSSLRSEDTAVYYCARDDVTAADVFDYWGQGTLVTVSS VL: not shown
1.5 | 0.00051 | 340000 | 2.6 | 0.00079 | 300000 | 1F11-1A3.315[Trop2]_H1.11_L1 (antibody, V domains shown) VH: QVQLVQSGAEVKKPGASVKVSCKASGYTFTRYYMHWVRQAPGQGLEWMGIIEPGGGSTGYAQKFQGRVTMTRDTSTSTVYMELSSLRSEDTAVYYCARDDVTAADVFDYWGQGTLVTVSS VL: not shown
0.77 | 0.00025 | 320000 | 1.5 | 0.00042 | 290000 | 1F11-1A3.315[Trop2]_H1.6_L1 (antibody, V domains shown) VH: QVQLVQSGAEVKKPGASVKVSCKASGYTLTRYYMHWVRQAPGQGLEWMGIIEPGGGSTGYAQKFQGRVTMTRDTSTSTVYMELSSLRSEDTAVYYCARDDVVAADVFDYWGQGTLVTVSS VL: not shown
0.66 | 0.0002 | 320000 | 0.93 | 0.00034 | 370000 | 1F11-1A3.315[Trop2]_H1.18_L1 (antibody, V domains shown) VH: QVQLVQSGAEVKKPGASVKVSCKASGYTLTRYYMHWVRQAPGQGLEWMGIIEPGGGSTTYAQKFQGRVTMTRDTSTSTVYMELSSLRSEDTAVYYCARDDVTAADVFDYWGQGTLVTVSS VL: not shown
0.55 | 0.00021 | 380000 | 0.7 | 0.00028 | 400000 | 1F11-1A3.315[Trop2]_H1.22_L1 (antibody, V domains shown) VH: QVQLVQSGAEVKKPGASVKVSCKASGYTLTRYYMHWVRQAPGQGLEWMGIIEPGGGSTSYAQKFQGRVTMTRDTSTSTVYMELSSLRSEDTAVYYCARDDVTKADVFDYWGQGTLVTVSS VL: not shown
